This is an account of results in article PMC12069319, “Transcriptional co-regulator OCA-B/Pou2af1 restricts Th2 differentiation”.

The target of the data set is Oct1 DNA binding domain (Oct1-DBD) (human (from pBabe-hOct1), UniProt P14859 280-438). The data set is described as follows: EMSA; EMSA: 0.6X buffer D (1X: 20 mM HEPES, 100 mM KCl, 1 mM DTT), 50 ng/ul poly-dI/dC, 1 ug/ul BSA, on ice 15 min, 6% native PAGE in 0.5X TBE; probe 50 nM (1 nM for). Conditions: protein: recombinant; tags: His (pET28a); blunt. On the technique in general: A gel shift assay detects complexes by their altered migration in electrophoresis.
Sequence of Oct1 DNA binding domain (Oct1-DBD) (P14859 280-438): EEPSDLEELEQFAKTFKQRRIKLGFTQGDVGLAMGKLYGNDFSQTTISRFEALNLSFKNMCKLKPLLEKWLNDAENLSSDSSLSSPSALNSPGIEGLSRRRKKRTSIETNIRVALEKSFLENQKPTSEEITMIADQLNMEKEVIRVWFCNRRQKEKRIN

B1: RHS6-Cy5 (dsDNA)
DNA 1: CACCATGCAAAGGATGTGCGCGGACTCCCTTCCATTTGCTGGCCTCTTATCTGATA
DNA 2: TATCAGATAAGAGGCCAGCAAATGGAAGGGAGTCCGCGCACATCCTTTGCATGGTG
Turning to B1, the binding result is listed as “binds”.

B2: RHS5_12-Cy5 (dsDNA)
DNA 1: TCGAGAAGCGCTGATTAGCATCTGTCATTA
DNA 2: TAATGACAGATGCTAATCAGCGCTTCTCGA
On to B2, for which the binding result is reported as “binds”.
